# Reference: US20220306695A1, “COMPSTATIN ANALOGUES AND THEIR MEDICAL USES” (priority 2019, published 2022)
# Starred links: 1 amine or outer side, 2 acyl side, 3 side chain; linkers in the order of their positions; H or OH if unused. Positions of bridges follow the written chain, without caps; N, C: chain ends. Non-standard residues stand in square brackets, D forms with d. Groups on a side chain read outwards from the residue. *: point of attachment. C20 diacid = O=C(O)CCCCCCCCCCCCCCCCCCC(=O)*; Trp(1-Me) = Cn1cc(C[C@H](N)C(=O)O)c2ccccc21; C18 diacid = O=C(O)CCCCCCCCCCCCCCCCC(=O)*; γGlu = O=C(O)[C@H](CCC(=O)[*:2])N[*:1]; hCys = N[C@@H](CCS)C(=O)O; AEEA = NCCOCCOCC(=O)O; Sar = CNCC(=O)O
# Target: Human C3 (human, UniProt P01024 23-1663)
# Assay: cell-based or functional assay
# Human C3, sequence (P01024 23-1663 limits assumed): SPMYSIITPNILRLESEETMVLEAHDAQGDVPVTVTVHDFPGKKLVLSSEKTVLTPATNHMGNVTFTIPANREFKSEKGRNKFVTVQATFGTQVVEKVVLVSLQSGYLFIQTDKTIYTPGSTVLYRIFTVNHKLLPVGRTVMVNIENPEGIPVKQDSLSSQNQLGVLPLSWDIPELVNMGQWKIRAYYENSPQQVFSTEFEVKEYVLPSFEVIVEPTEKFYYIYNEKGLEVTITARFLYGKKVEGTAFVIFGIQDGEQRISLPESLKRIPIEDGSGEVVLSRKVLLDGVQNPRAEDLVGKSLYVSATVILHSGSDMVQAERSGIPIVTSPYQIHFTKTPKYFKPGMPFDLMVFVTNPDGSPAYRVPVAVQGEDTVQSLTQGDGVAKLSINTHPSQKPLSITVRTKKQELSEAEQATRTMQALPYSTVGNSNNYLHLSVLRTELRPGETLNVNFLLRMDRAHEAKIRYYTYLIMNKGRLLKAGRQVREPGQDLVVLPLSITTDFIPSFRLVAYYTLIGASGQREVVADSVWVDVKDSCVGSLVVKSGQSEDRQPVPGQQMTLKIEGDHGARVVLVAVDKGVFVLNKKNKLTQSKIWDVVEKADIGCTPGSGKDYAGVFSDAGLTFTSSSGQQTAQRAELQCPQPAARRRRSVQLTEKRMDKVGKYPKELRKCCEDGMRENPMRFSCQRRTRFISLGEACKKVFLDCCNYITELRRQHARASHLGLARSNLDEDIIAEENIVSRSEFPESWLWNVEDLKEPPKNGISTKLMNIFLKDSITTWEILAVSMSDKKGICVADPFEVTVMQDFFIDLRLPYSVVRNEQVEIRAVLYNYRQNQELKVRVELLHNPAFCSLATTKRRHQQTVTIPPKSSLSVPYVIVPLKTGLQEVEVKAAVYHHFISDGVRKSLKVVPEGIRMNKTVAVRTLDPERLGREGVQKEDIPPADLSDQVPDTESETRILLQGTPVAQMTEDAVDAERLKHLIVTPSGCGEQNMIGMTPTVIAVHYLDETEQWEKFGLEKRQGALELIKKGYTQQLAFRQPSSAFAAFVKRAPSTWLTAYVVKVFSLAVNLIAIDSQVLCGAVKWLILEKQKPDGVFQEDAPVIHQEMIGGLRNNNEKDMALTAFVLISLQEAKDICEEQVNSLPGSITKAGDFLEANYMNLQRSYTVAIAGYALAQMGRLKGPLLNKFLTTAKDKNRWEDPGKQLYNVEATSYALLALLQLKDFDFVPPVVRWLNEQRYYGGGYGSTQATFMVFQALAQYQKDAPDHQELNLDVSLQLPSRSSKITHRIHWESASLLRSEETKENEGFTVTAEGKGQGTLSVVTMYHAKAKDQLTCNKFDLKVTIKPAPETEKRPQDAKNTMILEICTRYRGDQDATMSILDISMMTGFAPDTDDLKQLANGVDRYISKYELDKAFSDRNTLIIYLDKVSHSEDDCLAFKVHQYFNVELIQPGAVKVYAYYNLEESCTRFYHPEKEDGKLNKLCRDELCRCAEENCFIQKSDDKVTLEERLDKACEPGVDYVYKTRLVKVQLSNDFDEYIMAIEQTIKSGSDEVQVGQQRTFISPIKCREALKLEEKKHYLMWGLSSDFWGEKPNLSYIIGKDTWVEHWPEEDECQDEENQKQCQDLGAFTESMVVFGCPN
row,Binder,"IC50[nM], inhibition of hemolysis"
1,Ac-ICIWQKWGEHRCT-NH2 (disulfide 2-12; SMILES CC[C@H](C)[C@H](NC(C)=O)C(=O)N[C@H]1CSSC[C@@H](C(=O)N[C@H](C(N)=O)[C@@H](C)O)NC(=O)[C@H](CCCNC(=N)N)NC(=O)[C@H](Cc2c[nH]cn2)NC(=O)[C@H](CCC(=O)O)NC(=O)CNC(=O)[C@H](Cc2c[nH]c3ccccc23)NC(=O)[C@H](CCCCN)NC(=O)[C@H](CCC(N)=O)NC(=O)[C@H](Cc2c[nH]c3ccccc23)NC(=O)[C@H]([C@@H](C)CC)NC1=O) [Compound 7],< 1000 nM
2,Ac-YCIWQDWGEHRCT-NH2 (disulfide 2-12; SMILES CC[C@H](C)[C@@H]1NC(=O)[C@@H](NC(=O)[C@H](Cc2ccc(O)cc2)NC(C)=O)CSSC[C@@H](C(=O)N[C@H](C(N)=O)[C@@H](C)O)NC(=O)[C@H](CCCNC(=N)N)NC(=O)[C@H](Cc2c[nH]cn2)NC(=O)[C@H](CCC(=O)O)NC(=O)CNC(=O)[C@H](Cc2c[nH]c3ccccc23)NC(=O)[C@H](CC(=O)O)NC(=O)[C@H](CCC(N)=O)NC(=O)[C@H](Cc2c[nH]c3ccccc23)NC1=O) [Compound 9],< 100 nM
3,Ac-ESSAICIWQDWGEHRCTGAES-NH2 (disulfide 6-16; SMILES CC[C@H](C)[C@H](NC(=O)[C@H](C)NC(=O)[C@H](CO)NC(=O)[C@H](CO)NC(=O)[C@H](CCC(=O)O)NC(C)=O)C(=O)N[C@H]1CSSC[C@@H](C(=O)N[C@H](C(=O)NCC(=O)N[C@@H](C)C(=O)N[C@@H](CCC(=O)O)C(=O)N[C@@H](CO)C(N)=O)[C@@H](C)O)NC(=O)[C@H](CCCNC(=N)N)NC(=O)[C@H](Cc2c[nH]cn2)NC(=O)[C@H](CCC(=O)O)NC(=O)CNC(=O)[C@H](Cc2c[nH]c3ccccc23)NC(=O)[C@H](CC(=O)O)NC(=O)[C@H](CCC(N)=O)NC(=O)[C@H](Cc2c[nH]c3ccccc23)NC(=O)[C@H]([C@@H](C)CC)NC1=O) [Compound 14],< 100 nM
4,Ac-SEFCI[Trp(1-Me)]QEWGEHRC[Sar]EGAK([AEEA-γGlu-AEEA-Gly-γGlu-C18 diacid])-NH2 (disulfide 4-14; SMILES CC[C@H](C)[C@@H]1NC(=O)[C@@H](NC(=O)[C@H](Cc2ccccc2)NC(=O)[C@H](CCC(=O)O)NC(=O)[C@H](CO)NC(C)=O)CSSC[C@@H](C(=O)N(C)CC(=O)N[C@@H](CCC(=O)O)C(=O)NCC(=O)N[C@@H](C)C(=O)N[C@@H](CCCCNC(=O)COCCOCCNC(=O)CC[C@H](NC(=O)COCCOCCNC(=O)CNC(=O)CC[C@H](NC(=O)CCCCCCCCCCCCCCCCC(=O)O)C(=O)O)C(=O)O)C(N)=O)NC(=O)[C@H](CCCNC(=N)N)NC(=O)[C@H](Cc2c[nH]cn2)NC(=O)[C@H](CCC(=O)O)NC(=O)CNC(=O)[C@H](Cc2c[nH]c3ccccc23)NC(=O)[C@H](CCC(=O)O)NC(=O)[C@H](CCC(N)=O)NC(=O)[C@H](Cc2cn(C)c3ccccc23)NC1=O) [Compound 120],< 250 nM
5,Ac-EFAI[Trp(1-Me)]QDWGEHR[hCys]EGEK([γGlu-Gly-γGlu-C18 diacid])-NH2 (thioether 3-13; SMILES CC[C@H](C)[C@@H]1NC(=O)[C@@H](NC(=O)[C@H](Cc2ccccc2)NC(=O)[C@H](CCC(=O)O)NC(C)=O)CSCC[C@@H](C(=O)N[C@@H](CCC(=O)O)C(=O)NCC(=O)N[C@@H](CCC(=O)O)C(=O)N[C@@H](CCCCNC(=O)CC[C@H](NC(=O)CNC(=O)CC[C@H](NC(=O)CCCCCCCCCCCCCCCCC(=O)O)C(=O)O)C(=O)O)C(N)=O)NC(=O)[C@H](CCCNC(=N)N)NC(=O)[C@H](Cc2c[nH]cn2)NC(=O)[C@H](CCC(=O)O)NC(=O)CNC(=O)[C@H](Cc2c[nH]c3ccccc23)NC(=O)[C@H](CC(=O)O)NC(=O)[C@H](CCC(N)=O)NC(=O)[C@H](Cc2cn(C)c3ccccc23)NC1=O) [Compound 161],< 100 nM
6,Ac-SEFAI[Trp(1-Me)]QDWGEHR[hCys]TGAES-NH2 (thioether 4-14; SMILES CC[C@H](C)[C@@H]1NC(=O)[C@@H](NC(=O)[C@H](Cc2ccccc2)NC(=O)[C@H](CCC(=O)O)NC(=O)[C@H](CO)NC(C)=O)CSCC[C@@H](C(=O)N[C@H](C(=O)NCC(=O)N[C@@H](C)C(=O)N[C@@H](CCC(=O)O)C(=O)N[C@@H](CO)C(N)=O)[C@@H](C)O)NC(=O)[C@H](CCCNC(=N)N)NC(=O)[C@H](Cc2c[nH]cn2)NC(=O)[C@H](CCC(=O)O)NC(=O)CNC(=O)[C@H](Cc2c[nH]c3ccccc23)NC(=O)[C@H](CC(=O)O)NC(=O)[C@H](CCC(N)=O)NC(=O)[C@H](Cc2cn(C)c3ccccc23)NC1=O) [Compound 151],< 100 nM
7,Ac-SEFCI[Trp(1-Me)]QDW[Sar]EHRC[Sar]E[AEEA][AEEA]K([γGlu-Gly-γGlu-C18 diacid])-NH2 (disulfide 4-14; SMILES CC[C@H](C)[C@@H]1NC(=O)[C@@H](NC(=O)[C@H](Cc2ccccc2)NC(=O)[C@H](CCC(=O)O)NC(=O)[C@H](CO)NC(C)=O)CSSC[C@@H](C(=O)N(C)CC(=O)N[C@@H](CCC(=O)O)C(=O)NCCOCCOCC(=O)NCCOCCOCC(=O)N[C@@H](CCCCNC(=O)CC[C@H](NC(=O)CNC(=O)CC[C@H](NC(=O)CCCCCCCCCCCCCCCCC(=O)O)C(=O)O)C(=O)O)C(N)=O)NC(=O)[C@H](CCCNC(=N)N)NC(=O)[C@H](Cc2c[nH]cn2)NC(=O)[C@H](CCC(=O)O)NC(=O)CN(C)C(=O)[C@H](Cc2c[nH]c3ccccc23)NC(=O)[C@H](CC(=O)O)NC(=O)[C@H](CCC(N)=O)NC(=O)[C@H](Cc2cn(C)c3ccccc23)NC1=O) [Compound 144],< 100 nM
8,Ac-ICIWQEWGEHRCT-NH2 (disulfide 2-12; SMILES CC[C@H](C)[C@H](NC(C)=O)C(=O)N[C@H]1CSSC[C@@H](C(=O)N[C@H](C(N)=O)[C@@H](C)O)NC(=O)[C@H](CCCNC(=N)N)NC(=O)[C@H](Cc2c[nH]cn2)NC(=O)[C@H](CCC(=O)O)NC(=O)CNC(=O)[C@H](Cc2c[nH]c3ccccc23)NC(=O)[C@H](CCC(=O)O)NC(=O)[C@H](CCC(N)=O)NC(=O)[C@H](Cc2c[nH]c3ccccc23)NC(=O)[C@H]([C@@H](C)CC)NC1=O) [Compound 16],< 100 nM
9,Ac-ICIWQKWGAHRCTGAES-NH2 (disulfide 2-12; SMILES CC[C@H](C)[C@H](NC(C)=O)C(=O)N[C@H]1CSSC[C@@H](C(=O)N[C@H](C(=O)NCC(=O)N[C@@H](C)C(=O)N[C@@H](CCC(=O)O)C(=O)N[C@@H](CO)C(N)=O)[C@@H](C)O)NC(=O)[C@H](CCCNC(=N)N)NC(=O)[C@H](Cc2c[nH]cn2)NC(=O)[C@H](C)NC(=O)CNC(=O)[C@H](Cc2c[nH]c3ccccc23)NC(=O)[C@H](CCCCN)NC(=O)[C@H](CCC(N)=O)NC(=O)[C@H](Cc2c[nH]c3ccccc23)NC(=O)[C@H]([C@@H](C)CC)NC1=O) [Compound 8],< 500 nM
10,SEFAIWQDWGEHRCTEGEXESK (not fully specified; N-acetyl; C-terminal amide; delta-cystathionine (Ctt2) thioether bridge A4-hCys14 (hCys written C); W6 is 1-Me-Trp; X19 is Peg3; K22 side chain bears [17-carboxy-heptadecanoyl][γGlu]) [Compound 148],< 100 nM
11,Ac-SEF[hCys]I[Trp(1-Me)]QDW[Sar]EHRA[Sar]EGE[AEEA]ESK([γGlu-Gly-γGlu-C18 diacid])-NH2 (thioether 4-14; SMILES CC[C@H](C)[C@@H]1NC(=O)[C@@H](NC(=O)[C@H](Cc2ccccc2)NC(=O)[C@H](CCC(=O)O)NC(=O)[C@H](CO)NC(C)=O)CCSC[C@@H](C(=O)N(C)CC(=O)N[C@@H](CCC(=O)O)C(=O)NCC(=O)N[C@@H](CCC(=O)O)C(=O)NCCOCCOCC(=O)N[C@@H](CCC(=O)O)C(=O)N[C@@H](CO)C(=O)N[C@@H](CCCCNC(=O)CC[C@H](NC(=O)CNC(=O)CC[C@H](NC(=O)CCCCCCCCCCCCCCCCC(=O)O)C(=O)O)C(=O)O)C(N)=O)NC(=O)[C@H](CCCNC(=N)N)NC(=O)[C@H](Cc2c[nH]cn2)NC(=O)[C@H](CCC(=O)O)NC(=O)CN(C)C(=O)[C@H](Cc2c[nH]c3ccccc23)NC(=O)[C@H](CC(=O)O)NC(=O)[C@H](CCC(N)=O)NC(=O)[C@H](Cc2cn(C)c3ccccc23)NC1=O) [Compound 166],< 100 nM
12,"Ac-SEFCI[Trp(1-Me)]QDWGEHRC[Sar]EGE[AEEA][AEEA]K([γGlu-Gly-γGlu-C20 diacid])-NH2 (disulfide 4-14, also called comp 128) [Compound 128]",< 100 nM
13,Ac-ICIWQDWGAHRCE-NH2 (disulfide 2-12; SMILES CC[C@H](C)[C@H](NC(C)=O)C(=O)N[C@H]1CSSC[C@@H](C(=O)N[C@@H](CCC(=O)O)C(N)=O)NC(=O)[C@H](CCCNC(=N)N)NC(=O)[C@H](Cc2c[nH]cn2)NC(=O)[C@H](C)NC(=O)CNC(=O)[C@H](Cc2c[nH]c3ccccc23)NC(=O)[C@H](CC(=O)O)NC(=O)[C@H](CCC(N)=O)NC(=O)[C@H](Cc2c[nH]c3ccccc23)NC(=O)[C@H]([C@@H](C)CC)NC1=O) [Compound 12],< 100 nM
14,Ac-ESSAYCIWQDWGEHRCT-NH2 (disulfide 6-16; SMILES CC[C@H](C)[C@@H]1NC(=O)[C@@H](NC(=O)[C@H](Cc2ccc(O)cc2)NC(=O)[C@H](C)NC(=O)[C@H](CO)NC(=O)[C@H](CO)NC(=O)[C@H](CCC(=O)O)NC(C)=O)CSSC[C@@H](C(=O)N[C@H](C(N)=O)[C@@H](C)O)NC(=O)[C@H](CCCNC(=N)N)NC(=O)[C@H](Cc2c[nH]cn2)NC(=O)[C@H](CCC(=O)O)NC(=O)CNC(=O)[C@H](Cc2c[nH]c3ccccc23)NC(=O)[C@H](CC(=O)O)NC(=O)[C@H](CCC(N)=O)NC(=O)[C@H](Cc2c[nH]c3ccccc23)NC1=O) [Compound 10],< 100 nM
